B1: mCherry-RIPK1_(497–583) (domain or fragment, human, UniProt Q13546 497-583, looked up)
chain: MPSLHNIPVPETNYLGNTPTMPFSSLPPTDESIKYTIYNSTGIQIGAYNYMEIGGTSSSLLDSTNTNFKEEPAAKYQAIFDNTTSLT
notes: also called RIPK1 RHIM construct; source: E. coli BL21(DE3), solubilised in 8 M urea, purified (Ni-NTA); not shown: mCherry, N-terminal, kept
B2: Ub-TRIF_(601–712) (domain or fragment, human, UniProt Q8IUC6 601-712, looked up)
chain: APYGARMPFGGQVPLGAPPPFPTWPGCPQPPPLHAWQAGTPPPPSPQPAAFPQSLPFPQSPAFPTASPAPPQSPGLQPLIIHHAQMVQLGLNNHMWNQRGSQAPEDKTQEAE
notes: Kept as monomer in 8 M urea; assembly is started by removing the denaturant; also called wildtype TRIF RHIM; source: E. coli BL21(DE3), solubilised in 8 M urea, purified (Ni-NTA); not shown: ubiquitin, N-terminal, kept
B3: YPet-TRIF_(601–712) (domain or fragment, human, UniProt Q8IUC6 601-712, looked up)
chain: B2 chain
notes: source: E. coli BL21(DE3), solubilised in 8 M urea, purified (Ni-NTA); not shown: YPet, N-terminal, kept

Data set [1] concerns the molecule itself. The data set can be described thus: SDS-agarose gel electrophoresis (SDS-AGE); 5 µM alone or equimolar mixtures, kept in 8 M urea (monomer control) or dialysed overnight against 100 mM NaH2PO4, 20 mM Tris, 0.5 mM DTT, pH 8.0, with or without 2% SDS for 10 min; 1% agarose gel with 0.1% SDS; YPet and mCherry fluorescence imaged and overlaid.
The target of data set [2] is B3. Described as above. As to conditions: both partners purified.
Data set [3] concerns the molecule itself. The data set can be described thus: thioflavin T fluorescence + Congo red absorbance; self-assembly started by dilution from urea into 25 mM NaH2PO4, 150 mM NaCl, pH 7.4, 40 µM ThT, 0.5 mM DTT, 37 °C, 2.5 µM (0.625–5 µM in the concentration series); Congo red on samples dialysed overnight at 0.3 mg/mL.

The text below walks through data of paper PMC9182532, “The RHIM of the Immune Adaptor Protein TRIF Forms Hybrid Amyloids with Other Necroptosis-Associated Proteins” (Molecules, 2022).

On to B1, for which the binding result in data set [1] and in data set [2] was “binds” each time.
For B2, the binding result in data set [3] was “binds”.
On to B3, for which the binding result in data set [1] is reported as “binds”.
